This test concerns the target T1, soluble LAG-3 fusion protein: extracelluar domain of cynomolgus monkey LAG-3 fused to murine IgG2a (cynomolgus monkey; murine).
T1 construct: extracellular domain; also called cynomolgus LAG-3-murine IgG2a fusion protein
In words: SPR (Biacore); cynomolgus LAG-3-murine IgG2a captured on Fab2 goat-anti mouse Fc, antibody in solution. As for the experimental part:
In additional studies, the binding kinetics of the humanized antibodies hLAG-3 mAb 1 (1.4) and hLAG-3 mAb 6 (1.1), and a reference antibody LAG-3 mAb A to both human and cynomolgus monkey LAG-3 was investigated using Biacore analysis. In these studies, a soluble LAG-3 fusion protein (the extracelluar domain of human or cynomolgus monkey LAG-3 fused to murine IgG2a) was captured on a Fab2 goat-anti mouse Fc surface and incubated with the anti-LAG-3 antibody and the kinetics of binding was determined via Biacore analysis. The binding curves for LAG-3 mAb A, hLAG-3 mAb 1 (1.4) and hLAG-3 mAb 6 (1.1) binding to cynomolgus monkey LAG-3 are shown in FIGS. 7A-7C respectively, and the calculated ka, kd and KD are presented in Table 8. In a separate study, the binding of a bispecific Fc Region-containing diabody comprising hLAG-3 mAb 6 (1.1) to both human and cynomolgus monkey LAG-3 was investigated using Biacore analysis. In this study, the hLAG-3 mAb 6 (1.1) containing diabody was captured on a Fab2 goat-anti human Fc surface and incubated with soluble LAG-3 fusion protein (the extracelluar domain of human or cynomolgus monkey LAG-3 fused to a His tag) and the kinetics of binding was determined via Biacore analysis.

B1: 25F7 (BMS-986016, Medarex/BMS), designated LAG-3 mAb A (antibody, V domains shown)
VH: QVQLQQWGAGLLKPSETLSLTCAVYGGSFSDYYWNWIRQPPGKGLEWIGEINHNGNTNSNPSLKSRVTLSLDTSKNQFSLKLRSVTAADTAVYYCAFGYSDYEYNWFDPWGQGTLVTVSS
VL: EIVLTQSPATLSLSPGERATLSCRASQSISSYLAWYQQKPGQAPRLLIYDASNRATGIPARFSGSGSGTDFTLTISSLEPEDFAVYYCQQRSNWPLTFGQGTNLEIK
notes: also called LAG-2 mAb A
What is called Kd is the equilibrium constant for the complex coming apart. Consider B1, for which binding was put at a Kd of 458 nM.

B2: hLAG-3 mAb 1 (1.4), constant region not stated (antibody, V domains shown)
VH: QVQLVQSGAEVKKPGASVKVSCKASGYTFTNYGMNWVRQAPGQGLEWMGWINTYTGESTYADDFEGRFVFSMDTSASTAYLQISSLKAEDTAVYYCARESLYDYYSMDYWGQGTTVTVSS
VL: DIVMTQTPLSLSVTPGQPASISCKSSQSLLHSDAKTYLNWLLQKPGQPPERLIYLVSELDSGVPDRFSGSGSGTDFTLKISRVEAEDVGVYYCWQGTHFPYTFGGGTKVEIK
notes: also called hLAG-3 1 (1.4)
B2: the Kd was under 0.53 nM.

B3: hLAG-3 mAb 6 (1.1) (antibody, V domains shown)
VH: QVQLVQSGAEVKKPGASVKVSCKASGYTFTDYNMDWVRQAPGQGLEWMGDINPDNGVTIYNQKFEGRVTMTTDTSTSTAYMELRSLRSDDTAVYYCAREADYFYFDYWGQGTTLTVSS
VL: DIQMTQSPSSLSASVGDRVTITCRASQDVSSVVAWYQQKPGKAPKLLIYSASYRYTGVPSRFSGSGSGTDFTLTISSLQPEDFATYYCQQHYSTPWTFGGGTKLEIK
notes: also called hLAG-3 6 (1.1); humanized LAG-3 mAb 6
B3 gave a Kd of 3.7 nM.

These data come from patent publication US20240124582A1 (published 2024).
